The record followed here is the supplement of paper PMC10567573.

First the molecules themselves.
B1: LOXL2 (parent)
chain: YVEVKEGKTWKQICDKHWTAKNSR
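Further: lentivirally expressed fusions sorted by FACS into six bins by GFP to DsRed ratio, PSI derived from sequencing read proportions per bin multiplied by bin number.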

In the data set the parent is B1. The experiment in a line: protein stability index of a GFP-peptide fusion (GPS, HEK-293T) (PSI 1-6); higher = more stable. To be noted: c terminus: a fixed tail appended.
On to YVEVKEGKTWKQICDKHWTVKNSR [A20V], for which the protein stability index turned out to be 2.11.

YVEVKEGKTWKQICDKHWTTKNSR [A20T]: the protein stability index amounted to 2.03.

For YVEVKEGKTWKQICDKHWTLKNSR [A20L], the protein stability index was 2.16.

YVEVKEGKTWKQICDKHWTYKNSR [A20Y]: the protein stability index stood at 2.27.

For YVEIKEGKTWKQICDKHWTAKNSR [V4I], the protein stability index is 2.55.

As for YVEGKEGKTWKQICDKHWTAKNSR [V4G], the protein stability index came to 2.86.

On to YVESKEGKTWKQICDKHWTAKNSR [V4S], for which the protein stability index was determined as 2.73.

For the variant YVELKEGKTWKQICDKHWTAKNSR [V4L], the protein stability index was 3.89.

As to YVEEKEGKTWKQICDKHWTAKNSR [V4E], the protein stability index is 1.42.

Consider YVEVKEGKTWQQICDKHWTAKNSR [K11Q], for which the protein stability index was 1.83.

For the variant YVEVKEGKTWLQICDKHWTAKNSR [K11L], the protein stability index is 2.53.

Take YVEVKEGKTWTQICDKHWTAKNSR [K11T]: the protein stability index was 2.93.

In the case of YVEVKEGKTWEQICDKHWTAKNSR [K11E], the protein stability index was 2.28.

For YVEVKEGKTWVQICDKHWTAKNSR [K11V], the protein stability index amounted to 2.1.

YVEVKEGKTWGQICDKHWTAKNSR [K11G]: the protein stability index came out at 2.77.

Regarding YVEVKEGKTWCQICDKHWTAKNSR [K11C], the protein stability index was 2.28.

In the case of YVEVKEGKTWWQICDKHWTAKNSR [K11W], the protein stability index was 3.53.

For the variant YVEVKEGKTWYQICDKHWTAKNSR [K11Y], the protein stability index came to 4.35.

Take YVEVKEGKTWKQICDKRWTAKNSR [H17R]: the protein stability index amounted to 3.35.

Turning to YVEVKEGKTWKQICDKYWTAKNSR [H17Y], the protein stability index came to 3.47.

YVEVKEGKTWKQICDKDWTAKNSR [H17D]: the protein stability index is 1.84.

YVEVKEGKTWKQICDKVWTAKNSR [H17V]: the protein stability index is 3.44.

As to YVEVKEGKTWKQICDKSWTAKNSR [H17S], the protein stability index turned out to be 1.82.

For the variant YVLVKEGKTWKQICDKHWTAKNSR [E3L], the protein stability index worked out at 2.58.

YVCVKEGKTWKQICDKHWTAKNSR [E3C]: the protein stability index stood at 1.44.

Consider YVDVKEGKTWKQICDKHWTAKNSR [E3D], for which the protein stability index amounted to 2.63.

Regarding YVQVKEGKTWKQICDKHWTAKNSR [E3Q], the protein stability index amounted to 1.95.

YVEVKEGKTWKTICDKHWTAKNSR [Q12T]: the protein stability index worked out at 2.43.

In the case of YVEVKEGKTWKAICDKHWTAKNSR [Q12A], the protein stability index was 1.56.

As for YVEVKEGKTWKCICDKHWTAKNSR [Q12C], the protein stability index amounted to 1.58.

On to YVEVKEGKTWKNICDKHWTAKNSR [Q12N], for which the protein stability index was found to be 2.61.

On to YVEVKEGKTWKEICDKHWTAKNSR [Q12E], for which the protein stability index was determined as 1.58.

For YVEVKEGKTWKPICDKHWTAKNSR [Q12P], the protein stability index amounted to 2.31.

On to YVEVKEGKTWKLICDKHWTAKNSR [Q12L], for which the protein stability index stood at 2.39.

As for YVEVKSGKTWKQICDKHWTAKNSR [E6S], the protein stability index amounted to 1.99.

On to YVEVKYGKTWKQICDKHWTAKNSR [E6Y], for which the protein stability index was 2.65.

YVEVKIGKTWKQICDKHWTAKNSR [E6I]: the protein stability index is 1.47.

Regarding YVEVKTGKTWKQICDKHWTAKNSR [E6T], the protein stability index is 2.77.

In the case of YVEVKRGKTWKQICDKHWTAKNSR [E6R], the protein stability index stood at 1.84.

Consider YVEVKWGKTWKQICDKHWTAKNSR [E6W], for which the protein stability index is 2.16.

Take YVEVKGGKTWKQICDKHWTAKNSR [E6G]: the protein stability index was 3.33.

Turning to YVEVKEGKTWKQTCDKHWTAKNSR [I13T], the protein stability index turned out to be 2.68.

Regarding YVEVKEGKTWKQDCDKHWTAKNSR [I13D], the protein stability index came to 3.54.

On to YVEVKEGKTWKQKCDKHWTAKNSR [I13K], for which the protein stability index came to 2.81.

For the variant YVEVKEGKTWKQLCDKHWTAKNSR [I13L], the protein stability index was 1.4.

In the case of YVEVKEGKTWKQMCDKHWTAKNSR [I13M], the protein stability index came to 2.19.

Regarding YVEVKEGKTWKQQCDKHWTAKNSR [I13Q], the protein stability index was 2.5.

As for YVEVKEGKTWKQCCDKHWTAKNSR [I13C], the protein stability index came to 2.6.

As for YVEVKEGKTWKQPCDKHWTAKNSR [I13P], the protein stability index is 3.38.

YVEVKEGKTWKQIEDKHWTAKNSR [C14E]: the protein stability index came out at 2.5.

Turning to YVEVKEGKTWKQIQDKHWTAKNSR [C14Q], the protein stability index is 1.74.

Regarding YVEVKEGKTWKQISDKHWTAKNSR [C14S], the protein stability index stood at 1.75.

Turning to YVEVKEGKTWKQINDKHWTAKNSR [C14N], the protein stability index stood at 1.99.

In the case of YVEVKEGKTWKQIRDKHWTAKNSR [C14R], the protein stability index was determined as 2.33.

For the variant YVEVKEGKTWKQILDKHWTAKNSR [C14L], the protein stability index was found to be 1.8.

For YVEVKEKKTWKQICDKHWTAKNSR [G7K], the protein stability index was found to be 1.91.

Regarding YVEVKECKTWKQICDKHWTAKNSR [G7C], the protein stability index turned out to be 2.29.

As to YVEVKEWKTWKQICDKHWTAKNSR [G7W], the protein stability index was 2.52.

Consider YVEVKENKTWKQICDKHWTAKNSR [G7N], for which the protein stability index was 2.64.

On to YVEVKEVKTWKQICDKHWTAKNSR [G7V], for which the protein stability index turned out to be 2.8.

In the case of YVEVKEPKTWKQICDKHWTAKNSR [G7P], the protein stability index was determined as 1.96.

For YVEVKEHKTWKQICDKHWTAKNSR [G7H], the protein stability index is 1.62.

In the case of YVEVKEGKRWKQICDKHWTAKNSR [T9R], the protein stability index stood at 2.55.

Turning to YVEVKEGKMWKQICDKHWTAKNSR [T9M], the protein stability index amounted to 2.92.

As for YVEVKEGKHWKQICDKHWTAKNSR [T9H], the protein stability index amounted to 1.86.

As for YVEVKEGKPWKQICDKHWTAKNSR [T9P], the protein stability index stood at 2.

As for YVEVKEGKFWKQICDKHWTAKNSR [T9F], the protein stability index was 4.42.

Take YVEVKEGKEWKQICDKHWTAKNSR [T9E]: the protein stability index is 1.61.

Consider YVEVKEGKYWKQICDKHWTAKNSR [T9Y], for which the protein stability index amounted to 2.33.

Regarding YVEVKEGKCWKQICDKHWTAKNSR [T9C], the protein stability index came to 4.04.

As for YVEVKEGKSWKQICDKHWTAKNSR [T9S], the protein stability index came to 2.56.

Turning to YVEVKEGKTWKQICDKHWTAKQSR [N22Q], the protein stability index amounted to 1.82.

YVEVKEGKTWKQICDKHWTAKSSR [N22S]: the protein stability index came to 1.92.

Turning to YVEVKEGKTWKQICDKHWTAKYSR [N22Y], the protein stability index turned out to be 2.23.

In the case of YVEVKEGKTWKQICDKHWTAKASR [N22A], the protein stability index stood at 3.24.

Take YVEVKEGKTWKQICDKHWTAKPSR [N22P]: the protein stability index was 1.89.

Regarding YVEVKEGKTWKQICDKHWTAKRSR [N22R], the protein stability index was 1.8.

On to YVEVKEGKTWKQICDKHWTATNSR [K21T], for which the protein stability index was 2.5.

Consider YVEVKEGKTWKQICDKHWTASNSR [K21S], for which the protein stability index was 1.99.

For YVEVKEGKTWKQICDKHWTAMNSR [K21M], the protein stability index came to 2.13.

For the variant YVEVKEGKTWKQICDKHWTAENSR [K21E], the protein stability index was 3.16.

Regarding YVEVKEGKTWKQICDKHWTALNSR [K21L], the protein stability index turned out to be 1.95.

As for YVEVKEGKTWKQICDKHWTANNSR [K21N], the protein stability index worked out at 2.15.

For the variant YVEVKEGKTWKQICDKHWTAHNSR [K21H], the protein stability index worked out at 1.85.

Take YVEVKEGKTWKQICDKHWTAGNSR [K21G]: the protein stability index came to 2.14.

YVEVKEGKTWKQICWKHWTAKNSR [D15W]: the protein stability index was determined as 2.6.

For the variant YVEVKEGKTWKQICIKHWTAKNSR [D15I], the protein stability index turned out to be 1.83.

Regarding YVEVKEGKTWKQICAKHWTAKNSR [D15A], the protein stability index came out at 2.96.

As to YVEVKEGKTWKQICYKHWTAKNSR [D15Y], the protein stability index came out at 2.13.

For YVEVKEGKTWKQICKKHWTAKNSR [D15K], the protein stability index amounted to 2.94.

Regarding YVEVKEGKTWKQICGKHWTAKNSR [D15G], the protein stability index came to 2.64.

Regarding YVEVKEGKTWKQICMKHWTAKNSR [D15M], the protein stability index worked out at 2.05.

For the variant YVEVKEGKTWKQICQKHWTAKNSR [D15Q], the protein stability index stood at 2.56.

On to YVEVKEGKTWKQICVKHWTAKNSR [D15V], for which the protein stability index came to 2.49.
